Measured values from paper PMC7547085, “Specific and direct modulation of the interaction between adhesion GPCR GPR56/ADGRG1 and tissue transglutaminase 2 using synthetic ligands” (Scientific Reports, 2020).
Where a chain is given by its changes, count along the chain named. Blank lines part the entries; values can stand above or below the molecule they belong to.

Legend:
[1] = target: mouse tissue transglutaminase 2 C-terminal D3D4 domains (mTG2 D3D4) (mouse) (UniProt P21981); experiment: bead-binding assay read by flow cytometry; titration of monomeric biotinylated GPR56 fragments on TG2 D3D4-coated M280 beads; detected with neutravidin-650; one-to-one binding fit; apparent KD
[2] = target: T1, mouse tissue transglutaminase 2 C-terminal D3D4 domains (mTG2 D3D4) (mouse, UniProt P21981 471-686, biotin on the AVI-tag); experiment: FACS
T1 chain: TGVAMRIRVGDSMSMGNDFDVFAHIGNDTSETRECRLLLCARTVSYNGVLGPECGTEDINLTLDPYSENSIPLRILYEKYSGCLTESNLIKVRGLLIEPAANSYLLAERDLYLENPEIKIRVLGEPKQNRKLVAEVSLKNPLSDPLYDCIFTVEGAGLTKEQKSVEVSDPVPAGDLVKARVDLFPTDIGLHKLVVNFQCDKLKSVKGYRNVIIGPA

[3] = target: T2, mouse tissue transglutaminase 2 C-terminal D3D4 domains (mTG2 D3D4) (mouse, UniProt P21981 471-686, biotin on the AVI-tag); experiment: bead-binding assay read by flow cytometry; titration of monomeric biotinylated GPR56 fragments on TG2 D3D4-coated M280 beads; detected with neutravidin-650; one-to-one binding fit; apparent KD; settings: both partners purified
T2 construct: tissue transglutaminase 2 (TG2), mouse, domains D3 and D4, residues T471-A686; Used on M280 beads, or tetramerized with neutravidin-650 to stain cells; not shown: AVI-tag, N-terminal, kept
T2 sequence (looked up): T1 chain

Molecule: human GPR56 ECR H89A (domain or fragment)
Kd [1]: 790 nM

B3: mouse GPR56 ECR H89A (domain or fragment)
chain: PREDFRFCGQRNQTQQSTLHYDQSSEPHIFVWNTEETLTIRAPFLAAPDIPRFFPEPRGLYAFCLYWSRHTGRLHLRYGKHDYLLSSQASRLLCFQKQEQSLKQGAPLIATSVSSWQIPQNTSLPGAPSFIFSFHNAPHKVSHNASVDMCDLKKELQQLSRYLQHPQKAAKRPTAAFISQQLQSLESKLTSVSFLGDTLSFEEDRVNATVWKLPPTAGLEDLHIHSQKEEEQSEVQAYSLLLPRAVFQQTRGRRRDDAKRLLVVDFSSQALFQDKNSSQVLGEKVLGIVVQNTKVTNLSDPVVLTFQHQPQPKNVTLQCVFWVEDPASSSTGSWSSAGCETVSRDTQTSCLCNHLTYFAVLMVS
modifications: biotin on the AVI-tag
Kd [3]: 880 ± 80 nM

B4: human GPR56/ADGRG1 extracellular region (ECR), wild type (domain or fragment)
chain: RGHREDFRFCSQRNQTHRSSLHYKPTPDLRISIENSEEALTVHAPFPAAHPASRSFPDPRGLYHFCLYWNRHAGRLHLLYGKRDFLLSDKASSLLCFQHQEESLAQGPPLLATSVTSWWSPQNISLPSAASFTFSFHSPPHTAAHNASVDMCELKRDLQLLSQFLKHPQKASRRPSAAPASQQLQSLESKLTSVRFMGDMVSFEEDRINATVWKLQPTAGLQDLHIHSRQEEEQSEIMEYSVLLPRTLFQRTKGRSGEAEKRLLLVDFSSQALFQDKNSSQVLGEKVLGIVVQNTKVANLTEPVVLTFQHQLQPKNVTLQCVFWVEDPTLSSPGHWSSAGCETVRRETQTSCFCNHLTYFAVLMVSSVEVDAVHKH
modifications: biotin on the AVI-tag
Kd [3]: 330 ± 15 nM

Second part, the molecule after the results:

Kd [2]: 11 nM
fold increase in affinity against wild type [1]: 40 fold
B1: mouse GPR56 ECR S150A (domain or fragment)
chain: GSPREDFRFCGQRNQTQQSTLHYDQSSEPHIFVWNTEETLTIRAPFLAAPDIPRFFPEPRGLYHFCLYWSRHTGRLHLRYGKHDYLLSSQASRLLCFQKQEQSLKQGAPLIATSVSSWQIPQNTALPGAPSFIFSFHNAPHKVSHNASVDMCDLKKELQQLSRYLQHPQKAAKRPTAAFISQQLQSLESKLTSVSFLGDTLSFEEDRVNATVWKLPPTAGLEDLHIHSQKEEEQSEVQAYSLLLPRAVFQQTRGRRRDDAKRLLVVDFSSQALFQDKNSSQVLGEKVLGIVVQNTKVTNLSDPVVLTFQHQPQPKNVTLQCVFWVEDPASSSTGSWSSAGCETVSRDTQTSCLCNHLTYFAVLMVSSTEVEATHKHY
modifications: biotin on the AVI-tag

Kd [3]: 440 ± 20 nM
B2: mouse GPR56/ADGRG1 extracellular region (ECR), wild type (domain or fragment)
chain: B3 chain with A62H
modifications: biotin on the AVI-tag
